According to the supplement of paper PMC9170038:

Test system: MS2 coat protein
Assay: apparent KD of MS2 coat protein; higher = weaker reporter binding
Details: Eterna round: R107
Procedure, shortened: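 Designed RNA switches were transcribed on-chip from Illumina sequencing clusters and titrated with SNAP-549-labelled MS2 coat protein in twofold steps from 0.7 or 1.5 nM up to 3 µM. Each step lasted 0.8–1.5 h at first and 10–20 min by the end, in 100 mM Tris-HCl pH 7.5, 80 mM KCl and 4 mM MgCl2, without or with constant ligand. Apparent KD is the median, for each design, of fits to normalised cluster binding curves.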

[1] = input ligand: theophylline 20 uM
[2] = input ligand: tryptophan 2.4 mM
[3] = input ligand: theophylline 2 mM

Sequence | apparent KD of MS2 coat protein (input ligand: arginine 13.2 mM) [nM] | apparent KD of MS2 coat protein [1] [nM] | apparent KD of MS2 coat protein [2] [nM] | apparent KD of MS2 coat protein (input ligand: none) [nM] | apparent KD of MS2 coat protein [3] [nM]
GGGCCUGUAAGCAGACCCACAGCGGGUGAUACCAGCAAUAAAACUUGCCCUUGGCAGCACACAGCUACAUGAGGAUCACCCAUGU [Rausis] | 36.4 | 92.9 | 82.4 | – | –
GGGCGAGUGGCGCGGCGUGCUCCGCUCCGUCGAGGACCGGUACGGCCGCCACUCGACAUGAGGAUCACCCAUGUGCGAGCUCGCG [#1 Exclusion - Tryptophan A Attempt #12 (HarryS)] | 24.7 | 71.7 | 39.8 | 52.5 | 101
GGGUACAUCGCGGCCGCCACUCAUGUAAAUACCUGAGGAUCACCCUGGUCGAUGGAGACAUCGAAGAGGACCGGGUGAUGUACCG | 91.2 | 371 | 44.6 | 252 | 528
GGGUGGUAGGCGGCCGCCACUGAUUUUCAUAUAUAUAUAACAUGAGGAUCACCCAUGUAGAUAUGCAGGACCGGGCCUGUUGUUU [aaaL] | 26.6 | 39.6 | – | – | 37.7
GGUCUCUGGAGCGAUACCAGCUUAAUUGUACUGGCCAGGUACAUGAGGAUCACCCAUGUAAGCCCUUGGCAGCGCUCCAGAGACC [#1 Exclusion - Theophylline B Attempt #12 (HarryS)] | 10.6 | 13.6 | 11.6 | 12.1 | 24
GGUGAUCCGUGCUGCCGGAUCAUCGGUGAUACCAGCAUCGAAAGAUGCCCUUGGCAGCACCAACAUGAGGAUCACCCAUGUAAUA [(M)'-(T)'-(M)''-(T1)-(T2)-(M1)-(M2)_Design5] | 46 | 231 | 163 | – | –
GGUGGAGGCGUGGGACUUGUCUGAACGGAUACCAGCCACAUCACGGGCCCUUGGCAGCUGUACAUGAGGAUCACCCAUGUCGGUC [Atestevete] | 33.6 | 45.2 | 34.8 | – | –
GGUGGCGGGACUGAUACCAGCCACCACCGAUAGACCACAUGAGGAUCACCCAUGUUGGGUGGCCCUUGGCAGCAGUCUUGCUGCC [#1 Same State - Theophylline B Attempt #12 (HarryS)] | 24.2 | 432 | 907 | 206 | 1880
GGUGGCGUGACGGAUACCAGCCACCGCGGCAACGCAACAUGAGGAUCACCCAUGUUGGGUGGCCCUUGGCAGCUGUCGUGCGGCG [#1 Same State - Theophylline B Attempt #23 (HarryS)] | 47.4 | 79.3 | 78.1 | 86.2 | 27.5
GGUUACUCUACGGCCGCCACUGAAAAGUAAAUAUUAAUGUACAUGACAUGAGGAUCACCCAUGUACAGGACCGGGUAGUGUAACC [Tryptophan B 13] | 64.8 | 102 | – | – | 108
GGUUGGUGUAGAGAUAUAUUGAUUACUGAAGGAGCGGGAAUAAACCCAGGUAGGUCGCAGAGAUCCACAUGAGGAUCACCCAUGU [!0.O] | 32 | 54.6 | 35.3 | 36.9 | 53
GUAAGAGUAGGAAGGAGCGCUUUACAUGAGGAUCACCCAUGUGUGCCCUCAAUUUCGGUAAAGCAGGUAGGUCGCCUAAACUUGC [Tiqurabi] | 31.2 | 175 | 57 | 34.5 | 67.5
GUACGAGUUGACUGUGAGACUGGCGUGGAAGGAGCGCACGGAGGUGCAGGUAGGUCGCCACAUGAGGAUCACCCAUGUCGGGCCG [Qutigeveat] | 19.3 | 31.6 | 26.7 | 26.4 | 40.1
GUAGCUAUCGCGGCCGCCACUAAACCGGAAACGGAACAGGAGGAUCACCCUUGUGGCGAAAGCCAUAGGACCGGGCGAUAGCUAC [TryBS - Double Magnet system] | 224 | 457 | 46.3 | – | 735
GUCAGUUCUCAUGAUACCAGACCUGCCUCGGACAUGAGGAUCACCCAUGUACCCAAGCGAGUCCCUUGGCAGCAUGUGGCUUAAA [Ririatre] | 24.7 | 19.4 | 20.7 | – | –
GUGACUUACGGGCGCCAUUUGUAAUAGGAAGGAGCGGCGAAAUAGCCAGGUAGGUCGCCUAUACAUGAGGAUCACCCAUGUCACC [Esatbileor] | 46.9 | 105 | 77.8 | 91.9 | 105
GUGUCCUAGUCGGCCGCCACUGGUACGAAUACCUUCACCCGUGUGCACAUGAGGAUCACCCAUGUCAGGACCGGGACUAGGGUGU [SSTryp B #24] | 9.87 | 11.4 | 9.72 | 10 | 14.1
GUGUGGAGCUCGGCCGCCACUCAAACAUGAGGAUCACCCAUGUAAAACAUGAGGAUCACCCAUGUGAGGACCGGGAGAAACACGA [Exclusion Tryptophan B GF8] | 179 | 329 | – | – | 408
GUUAAUAGAAAACUAUUAACAGUGGGUGAACGAGGACCGGUACGGCCGCCACUCGGACAUGAGGAUCACCCAUGUCCAUGUGAAA [AstrosExyTryA#5] | 18.6 | 16.9 | 35.4 | 16.9 | 15.6

Sequence | apparent KD of MS2 coat protein (input ligand: arginine 13.2 mM) [nM] | apparent KD of MS2 coat protein [1] [nM] | apparent KD of MS2 coat protein [2] [nM] | apparent KD of MS2 coat protein (input ligand: none) [nM] | apparent KD of MS2 coat protein [3] [nM]
GUUACCAUGUCGGCCGCCACUAACAAGGUUAUGGCAAGUCUACACGACAUGAGGAUCACCCAUGUUAGGACCGGGACCCAUACCC [theeternabot_exclusion_MS2_Trp_B_44] | 12.2 | 17.5 | – | – | 16.2
GUUAGUUACACGGCCGCCACUCUUUGGCUUGGCUCAAGCUCCCAACAUGAGGAUCACCCAUGUCAGAGGACCGGGUGAACAACGU [theeternabot_sameState_MS2_Trp_B_28] | 56.1 | 180 | – | – | 205
GUUAUAGACGGAAGGAGCGCGACCACAUGAGGAUCACCCAUGUAUUGUGUUGGUAAUAGGUCGCAGGUAGGUCGCCGGUUAAUGA [#04 Same State - Arginine B] | 27.1 | 50.1 | 31 | 36.6 | 38
GUUAUAUACUCGGCCGCCACUGAGAGAGUCAUGUAAACAUGAGGAUCACCCAUGUAAUAUAUAUACAGGACCGGGAGUAUAGUAA [4.D] | 19.8 | 22 | – | – | 19.6
GUUGAGACCUCGGCCGCCACUCGCCAUGAGGAUCUCCCAUGUAACAUGAGGAUCACCCAUGUACUGAGGACCGGGAGGUCCUUGU [Same State Tryptophan B GF 16] | 12 | 18.5 | – | – | 15.5
GUUGGAUACUCGGCCGCCACUGAGAGAGUCAUGUGAACAUGAGGAUCACCCAUGUAAUAUAUAUACAGGACCGGGAGUGUUGUAA [4.I] | 20.3 | 43.7 | – | – | 32.5
GUUGGUUUGCGAAGGAGCGGGUAUGUUUUCUACUGGAUCCUAACAUGAGGAUCACCCAUGUCCCAGGUAGGUCGCGCGGGCUUUG [12.aA] | 35.6 | 75.2 | 45.8 | 38.6 | 54.5
UAAAACAUGAGGAUCACCCAUGUAAAUGAUACCAGAGUGAUGAUCCUCCCUUGGCAGCAUAACGCUGAUUGAUUACAAUCAGCGA [Mat - Same State Theophlline A - Mod of Eli - D22] | 55.2 | 160 | 58.3 | – | –
UAAACUACACAUGAGGAUCACCCAUGUGGCCGAGGACCGGUACGGCCGCCACUCGUGUGUUAAUAAAAGAACCGCAAAGUUCUUU [Raesonisso] | 74.2 | 410 | – | – | 678
UAAAUACAUGAGGAUCACCCAUGUUUGGAUACCAGAUAUGACAUUAUCCCUUGGCAGCCAUUCGUUCCAAAUGCUAUUGUGAAGG [theeternabot_sameState_MS2_Theo_A_26] | 20.6 | 30.8 | 22 | – | –
UAAUAAAUAAAUCCAAGGUGAAGGUCAGAUACCAGCCAGAUAACUGGCCCUUGGCAGCUGAAUAAACUUGAGGAACACCCAAGUA [TheoAS 28 #OpenEnded #MS2Late #AlternativeMS2] | 16.7 | 31.3 | 22.7 | 23 | 82
UAAUAAGUGCCGGUUCUCAGAUCCUCAUGUCGAGGACCGGUACGGCCGCCACUCGAAACAUGAGGAUCACCCAUGUAAUAAUAAU [#08 Exclusion Tryptophan A] | 47.8 | 105 | – | – | 73.1
UAAUCGUAGGCGGCCGCCACUUUUUGGUAGUGUCCAUUGUACACUCACAUGAGGAUCACCCAUGUAAGGACCGGGCCCGCAUCAG [theeternabot_exclusion_MS2_Trp_B_32] | 17.9 | 24.7 | – | – | 17.7
UAAUGCAUGACGGCCGCCACUAGAACAUGAGGAUCACCCAUGUACGGCGGCCGUCAUGGGUGGACUAGGACCGGGUCAUGCAUAU [(Trp1)-(Ms2)-(T)'-(M)'-(Trp2)_Design5] | 8.2 | 11.6 | – | – | 10.5
UACAUGAGGAUCACCCAUGUCGGCAGGGAAGGAGCGGCAAUAAAGCCAGGUAGGUCGCCCAUUAGUAUUUAUAAAUAAAUAUCCA [Same State - Arginine A] | 53.6 | 74.4 | 66.9 | 90 | 75.9
UACAUGAGGAUCACCCAUGUGUAGAGGGAUACCAGUGACAGUAAGCGCCCUUGGCAGCCCGUGAACAAUGGGUGAGCUAAAUAGU [#18 Exclusion-TheophyllineA] | 28.7 | 75.5 | 57.4 | 37.9 | 133
UACCGAUGAAGAAGGAGCGAUUUUAUGUUACAUGAGGAUCACCCAUGUGGACUAGGUGAAGAUCAGGUAGGUCGCUUCAUCGGUA [SSAB NP+V+V2 #20] | 19.8 | 31.9 | 24.5 | 20.3 | 22
UACUUACAUGAGGAUCACCCAUGUGGCGAAGGAGCGGCAUGAGGGCCAGGUAGGUCGCGCCAACAUACAUACAUGAGGAUCUCCC [Same State Arginine A 4] | 46.3 | 127 | 93.1 | 78.9 | 118
UAGCGAUUUGGUGAUACCAGACGUGUGCAGUCCUCAGACAUGAGGAUCACCCAUGUAUGCGUCCCUUGGCAGCGCUAUGAGGACA [Theo B Ex t6] | 66.5 | 105 | 44.3 | 48.4 | 201
